Several values for one entry are separate records, joined by “and”; a condition that tells them apart may be missing. Equal values may be shown once. Entries after “also recorded” stand apart in the source; their conditions may differ. Read-outs that look alike come from different tables or passages of the source.
How the values were obtained:
cell_based [1] = test system: T1, cell_based; set-up: species or system influenza A virus
T1 construct: other: purified scFvFc antibodies; transfected 293T cells; The full length HA genes of ... were cloned into pcDNA3.1 vector and transfected into 293T/17 cells to produce cell surface expressed HA

in_vivo [2] = test system: in_vivo; set-up: species or system BALB/c mice
binding [3] = target: binding; set-up: species or system influenza A virus; settings: read-out: mean Kd H5-IN05
cell_based [4] = target: cell_based (Influenza A virus, UniProt C3W5S1)
in_vivo [5] = test system: in_vivo; set-up: species or system BALB/c mice; remark: listed apart in the source
in_vivo [6] = assay: Influenza ADE study in mice, lung virus load by plaque assay; set-up: species or system BALB/c mice
Source text: Graphs of lung virus load vs dose in 3I14 (left) and 3I14 LALA (right) in an influenza antibody-dependent enhancement study in mice.
3I14 LALA avoids antibody-dependent enhancement (ADE).

binding [7] = target: binding (Influenza A virus, UniProt C3W5S1)
cell_based [8] = test system: cell_based
in_vivo [9] = test system: in_vivo; set-up: species or system BALB/c mice; remark: listed apart in the source
binding [10] = settings: read-out: mean Kd H9-HK99
binding [11] = test system: binding; set-up: species or system influenza A virus
cell_based [12] = test system: cell_based; set-up: species or system influenza A virus
biochemical_functional = test system: biochemical_functional; set-up: species or system influenza A virus; settings: pH 8
in_vivo [13] = test system: in_vivo; set-up: species or system BALB/c mice; remark: listed apart in the source
cell_based [14] = target: cell_based (Influenza A virus, UniProt P03452)
binding [15] = test system: binding; set-up: species or system influenza A virus; remark: listed apart in the source
binding [16] = test system: binding; set-up: species or system influenza A virus; remark: listed apart in the source
cell_based [17] = test system: cell_based; remark: listed apart in the source
cell_based [18] = test system: cell_based; set-up: species or system influenza A virus; remark: listed apart in the source
binding [19] = test system: binding; set-up: species or system influenza A virus; remark: listed apart in the source
binding [20] = test system: binding; set-up: species or system influenza A virus; remark: listed apart in the source
cell_based [21] = test system: cell_based; set-up: species or system influenza A virus; remark: listed apart in the source
binding [22] = test system: binding; set-up: species or system influenza A virus; remark: listed apart in the source
in_vivo [23] = settings: oseltamivir combined with up to 8,400 mg antibody; cited from earlier work
in_vivo [24] = settings: cited from earlier work

Sequence of cell_based (Influenza A virus, UniProt P03452) (P03452 344-565): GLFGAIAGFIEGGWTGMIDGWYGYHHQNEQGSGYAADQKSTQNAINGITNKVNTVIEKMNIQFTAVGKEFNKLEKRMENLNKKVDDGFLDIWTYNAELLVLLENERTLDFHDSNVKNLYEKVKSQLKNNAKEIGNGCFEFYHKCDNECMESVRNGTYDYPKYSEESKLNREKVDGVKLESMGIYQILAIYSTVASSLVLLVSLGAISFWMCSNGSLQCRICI
Sequence of cell_based (Influenza A virus, UniProt P03452) (P03452 18-343): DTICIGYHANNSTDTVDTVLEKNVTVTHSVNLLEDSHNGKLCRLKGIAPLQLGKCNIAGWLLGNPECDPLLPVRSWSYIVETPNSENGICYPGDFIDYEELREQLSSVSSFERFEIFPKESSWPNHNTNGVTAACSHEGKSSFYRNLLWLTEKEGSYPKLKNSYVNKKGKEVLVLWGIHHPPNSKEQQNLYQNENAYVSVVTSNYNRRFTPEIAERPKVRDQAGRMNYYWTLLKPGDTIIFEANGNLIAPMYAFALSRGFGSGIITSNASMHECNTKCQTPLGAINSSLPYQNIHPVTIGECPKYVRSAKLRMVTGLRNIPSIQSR

B1: 3I14: human broadly neutralizing anti-influenza A HA stem mAb from memory B cells; VH SEQ ID NO: 2, VL SEQ ID NO: 4 (antibody, V domains shown)
VH: QVQLLESGGGVVQPGRSLRLSCAASGFTFSNYGMHWVRQAPGKGLEWVAIISFDGSKKYYANSVKGRSTISRDNSKNTLSLQMNSLGPEDTALYYCAKLPSPYYFDSRFVWVAASAFHFWGQGILVTVSS
VL: NFMLTQPPSASGTPGQRVTISCSGSSSNIGGNTVHWFQQLPGTAPKLLIYTNSLRPSGVPDRFSGSKSGTSASLAISGLQSEDEADYYCAAWDDSLNGQVFGGGTKLTVL
binding to cell surface-expressed HAs by flow cytometry (cell_based [1]): bound
body weight loss, H7N9-AH13 challenge (in_vivo [2]): minimal body weight loss
protection from death, H7N9-AH13 challenge (in_vivo [2]): fully protected
Kd (binding [3]): 1.05 nM
IC50 H1-CA09 (cell_based [4]): 0.225 µg/mL
body weight loss, H7N7-NL219 challenge (in_vivo [5]): minimal body weight loss
protection from death, H7N7-NL219 challenge (in_vivo [5]): fully protected
virus levels in the lungs at high doses (in_vivo [6]; doses ≥5 mg/kg): reduced virus levels
increase of viral titers in lung tissue, 3I14 compared to 3I14 LALA (in_vivo [6]; intermediate low dose levels): ~2 fold
virus levels in the lungs compared with controls (in_vivo [6]; intermediate low dose levels, IP 1 hour prior to intranasal challenge, Day 4): ~2 fold
Koff H1-CA09 (binding [7]): 4.87e-05 s⁻¹
Kon H1-CA09 (binding [7]): 174000 M⁻¹ s⁻¹
Kd (binding [7]; read-out: Kd H1-CA09): 0.279 nM
luciferase response in Jurkat reporter cells (ADCC), H3 targets (cell_based [8]): induced a significant luciferase response
protection against H5N1-VN04 (in_vivo [9]): 60%
protection against H5N1-VN04, over doses (in_vivo [9]): 20-60%
Kd (binding [10]): 5.23 nM
affinity for H1 subtypes (binding [11]): high affinity
IC50 H3-BR07 infectious virus (cell_based [12]): 0.3054 µg/mL
prevention of trypsin cleavage of immature HA0 (biochemical_functional): prevented cleavage of immature HA0
protection against H3N2-BR07 (in_vivo [13]): 80%
protection against H3N2-BR07, over doses (in_vivo [13]): 60-80%
IC50 H1-PR8 (cell_based [14]): 0.413 µg/mL
Koff H3-PE09 (binding [15]): 3.99e-05 s⁻¹
Kon H3-PE09 (binding [15]): 152000 M⁻¹ s⁻¹
binding to trimeric full-length H3 A/Perth/16/09 (binding [15]): bound
Koff H5-VN04 (binding [16]): 0.000383 s⁻¹ and 0.000387 s⁻¹
Kon H5-VN04 (binding [16]): 375000 M⁻¹ s⁻¹ and 327000 M⁻¹ s⁻¹
luciferase response in Jurkat reporter cells (ADCC), H5 targets (cell_based [17]): at a lower level than FI6v3, CR9114, 39.29 and F10
IC50 H5-VN04 pseudovirus (cell_based [18]): 0.08158 µg/mL
binding to HA1 subunit of H3 PE-09 (binding [19]): did not bind
inhibition of binding of 39.29 and F10 to H5-VN04 (binding [20]): inhibited; also recorded: partially inhibits
inhibition of binding of anti-H5 head antibody 2A to H5-VN04 (binding [20]): did not inhibit; also recorded: does not inhibit
HA1-HA2 dissociation after DTT treatment (cell_based [21]): prevented HA1-HA2 dissociation
binding to dissociated HA2 mediated by DTT reduction (cell_based [21]): did not bind
binding to uncleaved HA precursor (HA0) and mature forms (HA) (cell_based [21]): binds to both uncleaved HA precursor (HA0)
inhibition of pH-dependent HA rearrangement (cell_based [21]; pH 4.9): inhibits the pH-dependent HA rearrangement

B2: 3I14 Fab: Fab of 3I14 used in the binding competition ELISA (antibody, V domains shown)
VH: B1 VH
VL: B1 VL
competition with E730 (anti-HA1 head Ab) for binding to H3-BR07 (binding [22]): did not compete
competition with anti-stem Abs CR8020, CR9114, FI6(v3) and 39.29 for binding to H3-BR07 (binding [22]): cross-competed; also recorded: strongly inhibits

B3: MHAA4549A: Genentech broadly neutralizing influenza A mAb (antibody, chains of the INN, looked up, V domains shown)
VH: EVQLVESGGGVVQPGKSLRLSCAASGLTFSSYAVHWVRQAPGKGLEWVTLISYDGANQYYADSVKGRFTISRDNSKNTVYLQMNSLRPEDTAVYYCAVPGPVFGIFPPWSYFDNWGQGILVTVSS
VL: EIVLTQSPATLSVSPGERATLSCRASQVISHNLAWYQQKPGQAPRLLIYGASTRASGIPARFSGSGSGTDYTLTITSLQSEDFAVYYCQHYSNWPPRLTFGGGTKVEIK
O2 or ventilation support (in_vivo [23]): required increase in O2 or ventilation support
duration of viral shedding (in_vivo [23]): increased duration of viral shedding
fatality due to any cause (in_vivo [23]): higher fatality percentage due to any cause
viral load (in_vivo [24]; 1200 mg, listed as MHAA4549A/Gedivumab): increase in viral load
viral loads (in_vivo [24]; 400 and 3600 mg): reduction in viral loads
